Data reported in US20190307797A1 (MAX DELBR CK CENTRUM F R MOLEKULARE MEDIZIN IN DER …, published 2019).

Biological target: T1, purified BCMA (CD269) extracellular domain (human, UniProt Q02223 4-54)
T1 construct: also called BCMA extracellular domain; extracellular domain of CD269
T1 sequence: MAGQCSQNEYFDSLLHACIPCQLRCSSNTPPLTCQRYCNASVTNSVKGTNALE
Assay: co-crystallisation, crystal structure of the complex

B1: Fab fragment prepared from the mouse or chimeric antibody from which the CAR was derived (chimeric antibody J22.9-xi) (Fab, V domains shown)
VH: QVQLQQSGGGLVQPGGSLKLSCAASGIDFSRYWMSWVRRAPGKGLEWIGEINPDSSTINYAPSLKDKFIISRDNAKNTLYLQMSKVRSEDTALYYCASLYYDYGDAMDYWGQGTSVTVSS
VL: DIVMTQSQRFMTTSVGDRVSVTCKASQSVDSNVAWYQQKPRQSPKALIFSASLRFSGVPARFTGSGSGTDFTLTISNLQSEDLAEYFCQQYNNYPLTFGAGTKLELKR
notes: also called J22.9-xi Fab; Fab fragments prepared from mouse or chimeric antibodies
  binding result: binds
